# Experimental data published in patent US20220135977.
# Target: Influenza A/H3N2 virus strain Ark1819002 (clade 3C.2a; virus protein quantified as hemagglutinin) (Influenza A virus (H3N2)) (UniProt P03437+P03437)
# Assay: filter
# Settings: not given
row,Sequence,binding signal [amol bound]
1,GGGAGAAUUCCGACCAGAAGGAACAUUUGUGGGUGGUGUGGGUGGCUGUUCCUUUCCUCUCUCCUUCCUCUUCU [P30-10-h1-9],832
2,GGGAGAAUUCCGACCAGAAGGCGCGAUUGUGUUGUGGUGGGUGGGCGCGCCUUUCCUCUCUCCUUCCUCUUCU [P30-10-h1-8],2.87
3,GGAGCUCAGCCUUCACUGCCAAAGUGCGAGGCAGUGUGGUGCUGUCCUACGAGUUCUAAAGUUCGUUAGGAAGGCAGCUCAACAUGUUUAACAGGCACCACCGUCGGAUCC [D12],0.1
4,GGGAGAAUUCCGACCAGAAGUGUCGAUGUGUAUCUUAUUUGUUUGUUUGUUUGUUUGUUUGUCCUUUCCUCUCUCCUUCCUCUUCU [P30-10-h1-3],37.3
5,GGGAGAAUUCCGACCAGAAGUCCCCUCCCUCGUAUCGUAUGUGCGUUUGCCCUUUCCUCUCUCCUUCCUCUUCU [P30-10-h1-5],80.3
6,GGGAGAAUUCCGACCAGAAGGGUCGGUGUAUAAUUGUAGUUUUGUUGUUGUUGUUGUUGUUGCCUUUCCUCUCUCCUUCCUCUUCU [P30-10-h1-10],60.7
7,GGGAGAAUUCCGACCAGAAGUAGUAGCCCGGGUGUGGGUUUAUGGCCGCCCCUUUCCUCUCUCCUUCCUCUUCU [P30-10-h1-6],34.2
8,GGGAGAAUUCCGACCAGAAGGCUAUGGGUUGAGUUCUGUAUGGGUGGGUGCCUUUCCUCUCUCCUUCCUCUUCU [P30-10-h1-4],232
9,GGGAGAAUUCCGACCAGAAGGCGCGAUUGUGGUUGUGGUGGGUGGGCGCGCCUUUCCUCUCUCCUUCCUCUUCU [P30-10-h1-2],166
10,GGGAGAAUUCCGACCAGAAGUAGUAGCCCGGGUGUGGGUUUAUGGUCGCCCCUUUCCUCUCUCCUUCCUCUUCU [P30-10-h1-1],47.9
11,GGGAGAAUUCCGACCAGAAGUAGUAGCCCGGGUGUGGGUUUAUGGUCGUCCCUUUCCUCUCUCCUUCCUCUUCU [P30-10-h1-7],17

# Same assay, conditions: 2'-F pyrimidines
row,Sequence,binding signal [amol bound]
1,GGAGCUCAGCCUUCACUGCCAAAAAGUUAGGCCAGCAAAUUGCGAGCUGAUCCGGUGACUGGCUACAGGAGGCCUUGUCCACGGCCGUAUUGGCACCACCGUCGGAUCC [D26(2'-F)],32.8
